From patent US20260061042A1, “POLYNUCLEOTIDE COMPOSITIONS AND USES THEREOF” (Pfizer Inc., priority 2024, published 2026)
Where “and” joins values, the source holds several entries; their conditions need not be identical. Equal values may be shown once. Entries after “also recorded” stand apart in the source; their conditions may differ.

Legend:
[1] = test system: E. coli strain CFT073 (PapG-dependent agglutination of human red blood cells); assay: PapG hemagglutination (HA) assay; type: cell-based, Escherichia coli CFT073; human red blood cells; details: pre-incubation of E. coli CFT073 WT strain with GbO3, then human RBCs
Protocol: (§1) A PapG HA assay was developed based on procedures described previously. WT E. coli strain CFT073 bacteria were streaked out from a frozen glycerol stock for single colonies on a tryptic soy blood agar plate. To grow bacteria for use in the HA assay, bacteria were cultured overnight in Luria Bertani liquid media at 37° C. and shaking at 230 rpm. The next morning, bacteria were washed once with 1×PBS and normalized to an OD540 of 1.0 in PBS. 30 μL of bacteria were then placed in a V-bottom 96-well plate (Corning, 3894) and serially diluted across the plate. […] After this incubation, 60 μL of a 1.75% red blood cell (Human Red Blood Cells, Washed, Rockland Immunochemicals R407-0050) solution (diluted from 10% stock using 1×PBS) was added to all the wells in the plate. The plate was incubated for 2 hours at 4° C. and then imaged using a light box and camera or ImageQuant System. To collect quantitative data, assay plates were analyzed using a Clariostar instrument. Absorbance was measured at a wavelength of 540 nm, which was the maximum absorbance observed using an RBC only control well, and a read diameter of 4 mm within each well. Absorbance was normalized using blank controls (1×PBS only).
PapG mediates the ability of E. coli to agglutinate human red blood cells (RBC).

[2] = molecular target: T1, E. coli CFT073 PapG-II lectin domain PapGLD variant N96S G104A, SEQ ID NO: 16 (Escherichia coli, UniProt A0A0H2VAQ6, G124A/N116S); assay: SYPRO orange thermal shift with GbO3; type: binding; details: shift in melting temperature in the presence of GbO3 vs apo; 3 replicates; PBS pH 7.4, 4% DMSO
T1 sequence (A0A0H2VAQ6 with tags, fused parts or gaps N116S/G124A): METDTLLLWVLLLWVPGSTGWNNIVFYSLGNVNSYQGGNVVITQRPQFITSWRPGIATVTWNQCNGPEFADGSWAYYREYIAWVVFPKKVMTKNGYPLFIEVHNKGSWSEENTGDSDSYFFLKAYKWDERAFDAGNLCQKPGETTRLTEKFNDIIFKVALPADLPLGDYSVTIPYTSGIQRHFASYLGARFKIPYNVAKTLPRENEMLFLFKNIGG
Protocol: (§2) PapG proteins were added to assay buffer (consisting of 4% DMSO, 1:1000 dilution of SYPRO orange (Invitrogen S6650) in PBS pH 7.4) at a final concentration of […]. Melt curves were analyzed in a QuantStudio 6 Real-time PCR system (ThermoFisher) using a dissociation protocol from 25° C. to 99° C., at 0.05° C./second. ROX was specified as the reporter.
(§3) The thermal stability of PapG WT and mutant proteins were determined using a SYPRO orange thermal shift-based differential scanning fluorimetry assay, wherein Tm designates the temperature at which 50% of the protein is unfolded. Non-covalent ligands often stabilize protein targets upon specific binding, resulting in an increase in protein melting temperature. Tm were therefore determined in the presence and absence of GbO3 for PapG, and the difference in Tm (ΔTm) of protein in the presence of ligand relative to the apo form was calculated.

[3] = test system: E. coli strain CFT073 agglutination of human red blood cells; assay: PapG hemagglutination (HA) assay; type: cell-based; details: pre-incubation with E. coli CFT073 WT strain, human RBC
Protocol: 16. PapG Hemagglutination (HA) Assay
as §1
7. Development of a Hemagglutination (HA) Assay as a Functional Assay to Evaluate Sera from PapG Immunized Animals. […]

[4] = Thermal shift in the presence of GbO3; type: binding; details: in the presence of GbO3 relative to the apo form
Protocol: as §2
The thermal stability of PapG WT and mutant proteins were determined using a SYPRO orange thermal shift-based differential scanning fluorimetry assay, wherein Tm designates the temperature at which 50% of the protein is unfolded. Non-covalent ligands often stabilize protein targets upon specific binding, resulting in an increase in protein melting temperature.

[5] = Thermal shift (SYPRO orange) melting temperature, apo form; type: physicochemical; details: apo state, PBS pH 7.4
Protocol: as §2, §3

[6] = PapG Luminex ligand binding assay with globoside GbO4; details: result in words
Protocol: 9. PapG Ligand Binding Assay with Globoside GbO4
To determine the ability of PapGLD mutants to bind the porcine derived globotetraosyl ceramide ligand GalNAc-Gal-Gal-Glc-ceramide (GbO4), a Luminex ligand binding assay was developed. Surfactant Protein-A (SP-A) was coupled to the surface of MagPlex beads by EDC/NHS, to capture the lipid tail of the globotetraosyl ceramide. The Globotetraosyl ceramide/SP-A beads were incubated with an eight-point threefold titration of PapG in a 96 well flat bottom white plate with final volume of 100 microliters of 50 mM HEPES PH 7.4, 10 mM NaCl, 0.0005% Tween 20 shaking at 300 rpm, 4° C. overnight. After 20-24 hours the ligand binding plates were read on a FlexMap 3D plate reader for measurement of well-bead region specific MFI. Ligand binding equilibrium dissociation constants (Kd) were calculated assuming one site specific binding and interpolated using non-linear curve fitting (GraphPad Prism) as the ligand concentration needed to achieve half-maximal binding. The Luminex derived apparent Kd values are based on approximately fifty bead counts per assay sample.
(§4) Binding of PapG proteins to GbO2 or GbO4 ligands was evaluated using a Luminex platform wherein ligands were coupled to MagPlex beads via surfactant protein A (for […]) or directly using […] conjugation (for […]). This assay was used to rank order binding affinities of the mutants, reported as Kd values interpolated from protein antigen titration curves (Table 7).

[7] = PapG Luminex ligand binding assay with globoside compound GbO2Mpo; details: result in words
Protocol: 10. PapG Ligand Binding Assay with Globoside Compound GbO2Mpo
To determine Luminex ligand binding affinities of PapG mutants for the synthetic globoside ligand Gal-Glc-phenoxy-octyl-amine (GbO2Mpo), a Luminex ligand binding assay was developed based on the direct coupling of the amine reactive globoside ligand to the EDC/NHS activated carboxylic surface of MagPlex beads. Synthesis of GbO2Mpo ligand with an octyl amine linker (for coupling to beads) was performed via methods described previously. The GbO2Mpo beads were incubated with an 8-point, threefold titration of PapG in a 96-well flat bottom white plate with final volume of 100 μl of 50 mM HEPES pH 7.4, 10 mM NaCl, 0.0005% Tween 20 shaking at 300 rpm, 4° C. overnight. After 20-24 hours the ligand binding plates were read on a FlexMap 3D plate reader for measurement of well-bead region specific MFI.
as §4

## Globotriaosylceramide [GbO3] [listing 1 of 2 here]
[1]
  inhibition of hemagglutination (in words): efficiently blocks agglutination of RBCs; also recorded: concentration-dependent inhibition of hemagglutination
[2]
  ΔTm (Average): < 0.5 °C and 0.22 °C

## Globotriaosylceramide [GbO3] [listing 2 of 2 here]
[3]
  inhibition of hemagglutination: efficiently blocks agglutination of RBCs; also recorded: concentration-dependent inhibition of hemagglutination

B1: PapG^LD N96S R170A: PapG lectin domain N96S with R170A ligand binding site mutation; SEQ ID NO: 23 (protein)
chain: METDTLLLWVLLLWVPGSTGWNNIVFYSLGNVNSYQGGNVVITQRPQFITSWRPGIATVTWNQCNGPEFADGSWAYYREYIAWVVFPKKVMTKNGYPLFIEVHNKGSWSEENTGDSDSYFFLKGYKWDERAFDAGNLCQKPGETTRLTEKFNDIIFKVALPADLPLGDYSVTIPYTSGIQRHFASYLGAAFKIPYNVAKTLPRENEMLFLFKNIGG
[4]
  ΔTm (Average): 0.33 °C
[5]
  Tm (Ave.): 55.83 °C
[6]
  binding to GbO4 ligand: prevent binding to GbO4; also recorded: lower the binding affinity; also recorded: eliminate ligand binding

B2: PapG^LD N96S K172A: PapG lectin domain N96S with K172A ligand binding site mutation; SEQ ID NO: 24 (protein)
chain: METDTLLLWVLLLWVPGSTGWNNIVFYSLGNVNSYQGGNVVITQRPQFITSWRPGIATVTWNQCNGPEFADGSWAYYREYIAWVVFPKKVMTKNGYPLFIEVHNKGSWSEENTGDSDSYFFLKGYKWDERAFDAGNLCQKPGETTRLTEKFNDIIFKVALPADLPLGDYSVTIPYTSGIQRHFASYLGARFAIPYNVAKTLPRENEMLFLFKNIGG
[4]
  ΔTm (Average): 0.42 °C
[7]
  binding to GbO2 ligand: reduced binding
[5]
  Tm (Ave.): 56.38 °C
[6]
  binding to GbO4 ligand: prevent binding to GbO4; also recorded: reduced binding; also recorded: lower the binding affinity; also recorded: eliminate ligand binding

B3: PapG^LD N96S W107A: PapG lectin domain N96S with W107A ligand binding site mutation; SEQ ID NO: 22 (protein)
chain: METDTLLLWVLLLWVPGSTGWNNIVFYSLGNVNSYQGGNVVITQRPQFITSWRPGIATVTWNQCNGPEFADGSWAYYREYIAWVVFPKKVMTKNGYPLFIEVHNKGSWSEENTGDSDSYFFLKGYKADERAFDAGNLCQKPGETTRLTEKFNDIIFKVALPADLPLGDYSVTIPYTSGIQRHFASYLGARFKIPYNVAKTLPRENEMLFLFKNIGG
[4]
  ΔTm (Average): 0.22 °C
[5]
  Tm (Ave.): 62.64 °C
[6]
  binding to GbO4 ligand: prevent binding to GbO4; also recorded: lower the binding affinity; also recorded: eliminate ligand binding
